94 variants from the supplement of paper PMC10567573 can be followed below.

The chains are these.
B1: S100A14 (parent)
chain: KIANLGSCNDSKLEFRSFWELIGE
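Note: lentivirally expressed fusions sorted by FACS into six bins by GFP to DsRed ratio, PSI derived from sequencing read proportions per bin multiplied by bin number.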

Variants of B1 are the subject of the series. Nature of the series: protein stability index of a GFP-peptide fusion (GPS, HEK-293T) (PSI 1-6); higher = more stable. To be noted: c terminus: a fixed tail appended.
With KIANLGSCNDSKPEFRSFWELIGE, the protein stability index came out at 2.5. The same measure for KIANLGSCNDSKCEFRSFWELIGE: 1.21; for KIANLGSCNDSKREFRSFWELIGE: 1.5; for KIANLGSCNDSKGEFRSFWELIGE: 2.18. On to KIANLGSCNDSKKEFRSFWELIGE, for which the protein stability index stood at 2.04. The value for KIANLGSCNDSKNEFRSFWELIGE was 1.88; that for KIANLGSCNDSKIEFRSFWELIGE was 2.13. The value for KIANLGSCNDSKDEFRSFWELIGE was 2.17. The value for KIANLGSCNDSKSEFRSFWELIGE was 2.52; that for KIANLGSCNDSKTEFRSFWELIGE was 2.24. For the variant KIANLGSCNDSKLEIRSFWELIGE, the protein stability index amounted to 2.24. The same measure for KIANLGSCNDSKLEWRSFWELIGE: 2.75. As for KIANLGSCNDSKLEMRSFWELIGE, the protein stability index is 2.25. The value for KIANLGSCNDSKLEGRSFWELIGE was 1.92; that for KIANLGSCNDSKLEVRSFWELIGE was 2.56; that for KIANLGSCNDSKLEKRSFWELIGE was 1.88. The value for KIANLGSCNDSKLEERSFWELIGE was 2.65.

Turning to KIANLGSCNDSKLECRSFWELIGE, the protein stability index was determined as 1.75. For the variant KIANLGSCNDSKLEPRSFWELIGE, the protein stability index turned out to be 2.42. The value for KIANLGSCNDSKLEYRSFWELIGE was 1.63; that for KIANLGSCNDSKLEARSFWELIGE was 2.06; that for KIANLGSCNDSKLELRSFWELIGE was 1.06. On to KIANLGSCNDSKLENRSFWELIGE, for which the protein stability index is 2.22.

With KIANLGSCNDSKLERRSFWELIGE, the protein stability index was found to be 2.7. The same measure for KIANLGSCNDSKLETRSFWELIGE: 2.1; for KIANLGSCNDSKLEDRSFWELIGE: 2.51. As to KIANLGSCNDSKLEQRSFWELIGE, the protein stability index came out at 2.25. For the variant KIANLGSCNDSKLEHRSFWELIGE, the protein stability index amounted to 2.14.

Regarding KIANLGSCNDSKLESRSFWELIGE, the protein stability index was 2.04.

Regarding KIANLGSCNDSKLEFRSFWALIGE, the protein stability index turned out to be 1.64. The same measure for KIANLGSCNDSKLEFRSFWKLIGE: 2.22. As to KIANLGSCNDSKLEFRSFWDLIGE, the protein stability index came to 2.56. For the variant KIANLGSCNDSKLEFRSFWCLIGE, the protein stability index is 2.79. As for KIANLGSCNDSKLEFRSFWLLIGE, the protein stability index is 2.77. With KIANLGSCNDSKLEFRSFWILIGE, the protein stability index came to 2.29. On to KIANLGSCNDSKLEFRSFWFLIGE, for which the protein stability index came out at 2.77. The same measure for KIANLGSCNDSKLEFRSFWGLIGE: 1.4. Turning to KIANLGSCNDSKLEFRSFWHLIGE, the protein stability index came out at 2.15. In the case of KIANLGSCNDSKLEFRWFWELIGE, the protein stability index is 2.28.

With KIANLGSCNDSKLEFRNFWELIGE, the protein stability index was found to be 1.5. The same measure for KIANLGSCNDSKLEFRLFWELIGE: 2.86. As to KIANLGSCNDSKLEFRDFWELIGE, the protein stability index amounted to 1.95. The same measure for KIANLGSCNDSKLEFRTFWELIGE: 2.75. For the variant KIANLGSCNDSKLEFRHFWELIGE, the protein stability index came out at 1.46. On to KIANLGSCNDSKLEFRYFWELIGE, for which the protein stability index was determined as 1.84.

As for KIANLGSCNDSKLEFRQFWELIGE, the protein stability index was 2.75. The value for KIANLGSCNDSKLEFRKFWELIGE was 2.2; that for KIANLGSCNDSKLEFRCFWELIGE was 2.16.

Regarding KIANLGSCNDSKLEFRIFWELIGE, the protein stability index was found to be 2.45. Regarding KIANLGSCNDSKLEFRPFWELIGE, the protein stability index is 1.65.

Turning to KIANLGSCNDSKLEFRFFWELIGE, the protein stability index is 2.52. The same measure for KIANLGSCNDSKLEFRGFWELIGE: 1.33; for KIANLGSCNDSKLEFRAFWELIGE: 3.38. The same measure for KIANLGSCNDSKLEFREFWELIGE: 1.87.

For KIANLGSCNDSKLEFRMFWELIGE, the protein stability index was 1.29. The same measure for KIANLGSCNDSKLEFRRFWELIGE: 1.34. The value for KIANLGSCNDSKLEFRSFEELIGE was 3.25; that for KIANLGSCNDSKLEFRSFNELIGE was 2.71. Consider KIANLGSCNDSKLEFRSFDELIGE, for which the protein stability index came out at 3.58.

As for KIANLGSCNDSKLEFRSFMELIGE, the protein stability index worked out at 1.79.

Regarding KIANLGSCNDSKLEFRSFPELIGE, the protein stability index came to 3.25.

For the variant KIANLGSCNDSKLEFRSFCELIGE, the protein stability index was found to be 1.46.

Turning to KIANLGSCNDSKLEFRSFIELIGE, the protein stability index was 1.97. Take KIANLGSCNDSKLEFRSFGELIGE: the protein stability index is 2.68.

Regarding KIANLGSCNDSKLEFRSFHELIGE, the protein stability index stood at 2.74.

With KIANLGSCNDSKLEFRSFYELIGE, the protein stability index was 1.78. The value for KIANLGSCNDSKLEFRSFLELIGE was 1.56; that for KIANLGSCNDSKLEFRSFKELIGE was 2.11. The same measure for KIANLGSCNDSKLEFRSFFELIGE: 2.03; for KIANLGSCNDSKLEFRSFSELIGE: 1.87; for KIANLGSCNDSKLEFRSFQELIGE: 1.73. The value for KIANLGSCNDSKLEFRSFAELIGE was 1.89; that for KIANLGSCNDSKLEFRSFTELIGE was 2.29.

Take KIANLGSCNDSKLEFRSFRELIGE: the protein stability index worked out at 2.09. The value for KIANLGSCNDSKLEFRSFVELIGE was 3.86; that for KIANLGSCNDSFLEFRSFWELIGE was 2.76; that for KIANLGSCNDSQLEFRSFWELIGE was 1.26. For KIANLGSCNDSCLEFRSFWELIGE, the protein stability index turned out to be 2.01. The value for KIANLGSCNDSPLEFRSFWELIGE was 1.95. The value for KIANLGSCNDSTLEFRSFWELIGE was 3; that for KIANLGSCNDSVLEFRSFWELIGE was 2.47.

Turning to KIANLGSCNDSSLEFRSFWELIGE, the protein stability index was determined as 1.96. The value for KIANLGSCNDSHLEFRSFWELIGE was 2.35; that for KIANLGSCNDSILEFRSFWELIGE was 1.8; that for KIANLGSCNDSNLEFRSFWELIGE was 2.29.

As for KIANLGSCNDSLLEFRSFWELIGE, the protein stability index was found to be 1.72. Regarding KIANLGSCNDSDLEFRSFWELIGE, the protein stability index came out at 2.24. The same measure for KIANLGSCNDSWLEFRSFWELIGE: 2.47. The same measure for KIANLGSCNDSRLEFRSFWELIGE: 2.56; for KIANLGSCNDSALEFRSFWELIGE: 2.02; for KIANLGSCNDSELEFRSFWELIGE: 3.21. The same measure for KIANLGSCNDSGLEFRSFWELIGE: 1.59.

As to KIANLGSCNDSMLEFRSFWELIGE, the protein stability index is 2.21. For KIANLGSCNDSYLEFRSFWELIGE, the protein stability index was 3.
